This passage reports Km results from publication PMC11208175.

Substrate in this data set: O=P(O)(O)O
The data set is described as follows: cells, lysate or membranes. Particulars: whole-cell transport in C. crescentus delta-pstS expressing pitA, 0.1-20 µM phosphate, 37 °C, labelled compound (33P tracer).

B1: PitA (Escherichia coli K-12) (protein)
chain: MLHLFAGLDLHTGLLLLLALAFVLFYEAINGFHDTANAVATVIYTRAMRSQLAVVMAAVFNFLGVLLGGLSVAYAIVHMLPTDLLLNMGSSHGLAMVFSMLLAAIIWNLGTWYFGLPASSSHTLIGAIIGIGLTNALMTGTSVVDALNIPKVLSIFGSLIVSPIVGLVFAGGLIFLLRRYWSGTKKRARIHLTPAEREKKDGKKKPPFWTRIALILSAIGVAFSHGANDGQKGIGLVMLVLIGVAPAGFVVNMNATGYEITRTRDAINNVEAYFEQHPALLKQATGADQLVPAPEAGATQPAEFHCHPSNTINALNRLKGMLTTDVESYDKLSLDQRSQMRRIMLCVSDTIDKVVKMPGVSADDQRLLKKLKSDMLSTIEYAPVWIIMAVALALGIGTMIGWRRVATTIGEKIGKKGMTYAQGMSAQMTAAVSIGLASYTGMPVSTTHVLSSSVAGTMVVDGGGLQRKTVTSILMAWVFTLPAAVLLSGGLYWLSLQFL
Usually Km stands for the substrate concentration at which the rate is half of its maximum. As to B1, the Km is 1.9 µM.
